Results reported in patent US20240132563A1.

How the values were obtained:
Test in all cases: cell-based or functional assay
[1] = target: IL-18 polypeptide C150 (V11I, T34A, C38A, K53A, C76A, C127A) (human) (UniProt Q14116)
[2] = target: IL-18 polypeptide C168 (V11I, C38A, C76A, S105K, C127A) (human) (UniProt Q14116)
[3] = target: IL-18 polypeptide of SEQ ID NO: 43 (E06K, K53A, S55A, Y01G) (human) (UniProt Q14116)
[4] = target: IL-18 polypeptide of SEQ ID NO: 35 (Y01G, F02A, E06K, M51G, K53A, D54A, S55A, T63A) (human) (UniProt Q14116)
[5] = target: IL-18 polypeptide of SEQ ID NO: 37 (S55A) (human) (UniProt Q14116)
[6] = target: IL-18 polypeptide C149 (V11I, E31A, C38A, K53A, C76A, C127A) (human) (UniProt Q14116)
[7] = target: IL-18 polypeptide C147 (V11I, C38A, K53A, D54A, C76A, C127A) (human) (UniProt Q14116)
[8] = target: IL-18 polypeptide of SEQ ID NO: 50 (E06K, K53A, T63A) (human) (UniProt Q14116)
[9] = target: IL-18 polypeptide of SEQ ID NO: 41 (K53A, S55A) (human) (UniProt Q14116)
[10] = target: IL-18 polypeptide of SEQ ID NO: 1 (native sequence) (human) (UniProt Q14116)
[11] = target: IL-18 polypeptide of SEQ ID NO: 40 (E06K, S55A) (human) (UniProt Q14116)
[12] = target: IL-18 polypeptide C164 (V11I, C38A, S55H, C76A, C127A) (human) (UniProt Q14116)
[13] = target: IL-18 polypeptide C151 (V11I, D35A, C38A, K53A, C76A, C127A) (human) (UniProt Q14116)
[14] = target: IL-18 polypeptide of SEQ ID NO: 48 (C38S, C68S, C76S, C127S, K70C) (human) (UniProt Q14116)
[15] = target: IL-18 polypeptide of SEQ ID NO: 9 (E6K, C38A, K53A, C68A, D98C) (human) (UniProt Q14116)
[16] = target: IL-18 polypeptide C158 (V11I, C38A, K53A, C76A, G108A, C127A) (human) (UniProt Q14116)
[17] = target: IL-18 polypeptide C157 (V11I, C38A, K53A, C76A, C127A, D132A) (human) (UniProt Q14116)
[18] = target: IL-18 polypeptide C161 (K8R, V11I, C38A, C76A, Q103E, C127A) (human) (UniProt Q14116)
[19] = target: IL-18 polypeptide of SEQ ID NO: 59 (E6K, C38A, K53A) (human) (UniProt Q14116)
[20] = target: IL-18 polypeptide of SEQ ID NO: 51 (T63A) (human) (UniProt Q14116)
[21] = target: IL-18 polypeptide C163 (V11I, C38A, C76A, Q103K, C127A) (human) (UniProt Q14116)
[22] = target: IL-18 polypeptide of SEQ ID NO: 36 (K53A) (human) (UniProt Q14116)
[23] = target: IL-18 polypeptide of SEQ ID NO: 39 (E06K, K53A) (human) (UniProt Q14116)
[24] = target: IL-18 polypeptide C162 (K8E, V11I, C38A, C76A, Q103R, C127A) (human) (UniProt Q14116)
[25] = target: IL-18 polypeptide of SEQ ID NO: 4 (E6K, C38A, K53A, C68A, M86C) (human) (UniProt Q14116)
[26] = target: IL-18 polypeptide C146, SEQ ID NO: 68 (V11I, C38A, M51G, K53A, C76A, C127A) (human) (UniProt Q14116)
[27] = target: IL-18 polypeptide C152 (V11I, S36A, C38A, K53A, C76A, C127A) (human) (UniProt Q14116)
[28] = target: IL-18 polypeptide C148 (F2A, V11I, C38A, K53A, C76A, C127A) (human) (UniProt Q14116)
[29] = target: IL-18 polypeptide C144 (V11I, C38A, K53A, T63A, C76A, C127A) (human) (UniProt Q14116)
[30] = target: IL-18 polypeptide of SEQ ID NO: 47 (C38S, C68S, C76S, C127S) (human) (UniProt Q14116)
[31] = target: IL-18 polypeptide of SEQ ID NO: 34 (E06K, K53A, S55A) (human) (UniProt Q14116)
[32] = target: IL-18 polypeptide of SEQ ID NO: 60 (E6K, C38Q, K53A) (human) (UniProt Q14116)
[33] = target: IL-18 polypeptide of SEQ ID NO: 62 (E6K, C38A, K53A, C127A) (human) (UniProt Q14116)
[34] = target: IL-18 polypeptide of SEQ ID NO: 52 (E06K, T63A) (human) (UniProt Q14116)
[35] = target: IL-18 polypeptide C160 (V11I, C38A, K53A, C76A, D110A, C127A) (human) (UniProt Q14116)
[36] = target: IL-18 polypeptide of SEQ ID NO: 42 (E06K, K53A, S55A, T63A) (human) (UniProt Q14116)
[37] = target: IL-18 polypeptide of SEQ ID NO: 5 (E6K, V11I, C38A, K53A, T63A, C68A, C76A, M86C, C127A) (human) (UniProt Q14116)
[38] = target: IL-18 polypeptide C159 (V11I, C38A, K53A, C76A, H109A, C127A) (human) (UniProt Q14116)
[39] = target: IL-18 polypeptide of SEQ ID NO: 46 (E06K, K53A, S55A, M51G) (human) (UniProt Q14116)
[40] = target: IL-18 polypeptide of SEQ ID NO: 54 (E06K, K53A, C38S, C68S, C76S, C127S, K70C) (human) (UniProt Q14116)
[41] = target: IL-18 polypeptide C156 (V11I, C38A, N41A, K53A, C76A, C127A) (human) (UniProt Q14116)
[42] = target: IL-18 polypeptide of SEQ ID NO: 57 (E6K, C38S, K53A) (human) (UniProt Q14116)
[43] = target: IL-18 polypeptide of SEQ ID NO: 53 (K53A, T63A) (human) (UniProt Q14116)
[44] = target: IL-18 polypeptide of SEQ ID NO: 38 (E06K) (human) (UniProt Q14116)
[45] = target: IL-18 polypeptide of SEQ ID NO: 55 (K53A, T63A, C38S, C68S, C76S, C127S, K70C) (human) (UniProt Q14116)
[46] = target: IL-18 polypeptide C145 (V11I, C38A, K53A, S55A, C76A, C127A) (human) (UniProt Q14116)
[47] = target: IL-18 polypeptide of SEQ ID NO: 30 (E6K, V11I, C38A, K53A, T63A, C76A, C127A) (human) (UniProt Q14116)
[48] = target: IL-18 polypeptide C143 (V11I, C38A, K53A, C76A, C127A) (human) (UniProt Q14116)
[49] = target: IL-18 polypeptide of SEQ ID NO: 6 (E6K, V11I, C38A, K53A, T63A, C68A, C76A, D98C, C127A) (human) (UniProt Q14116)
[50] = target: IL-18 polypeptide C165 (V11I, C38A, S55R, C76A, C127A) (human) (UniProt Q14116)
[51] = target: IL-18 polypeptide C153 (V11I, D37A, C38A, K53A, C76A, C127A) (human) (UniProt Q14116)
[52] = target: IL-18 polypeptide C166 (V11I, C38A, S55T, C76A, C127A) (human) (UniProt Q14116)
[53] = target: IL-18 polypeptide C155 (V11I, C38A, D40A, K53A, C76A, C127A) (human) (UniProt Q14116)
[54] = target: IL-18 polypeptide C167 (V11I, C38A, C76A, S105I, C127A) (human) (UniProt Q14116)
[55] = target: IL-18 polypeptide C154 (V11I, E31A, D37A, C38A, K53A, C76A, C127A) (human) (UniProt Q14116)
Sequence of IL-18 polypeptide C154 (V11I, E31A, D37A, C38A, K53A, C76A, C127A) (human) (Q14116 37-193 V47I/E67A/D73A/C74A/K89A/C112A/C163A): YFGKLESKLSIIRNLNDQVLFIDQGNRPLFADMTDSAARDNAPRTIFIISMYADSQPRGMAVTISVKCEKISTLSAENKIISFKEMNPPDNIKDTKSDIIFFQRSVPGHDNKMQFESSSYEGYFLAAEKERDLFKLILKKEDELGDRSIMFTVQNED

Sequence of IL-18 polypeptide C156 (V11I, C38A, N41A, K53A, C76A, C127A) (human) (Q14116 37-193 V47I/C74A/N77A/K89A/C112A/C163A): as the sequence (Q14116 37-193 V47I/E67A/D73A/C74A/K89A/C112A/C163A) above, with A31E, A37D, N41A counted along it
Sequence of IL-18 polypeptide of SEQ ID NO: 55 (K53A, T63A, C38S, C68S, C76S, C127S, K70C) (human) (Q14116 37-193 C74S/K89A/T99A/C104S/K106C/C112S/C163S): as the sequence (Q14116 37-193 V47I/E67A/D73A/C74A/K89A/C112A/C163A) above, with I11V, A31E, A37D, A38S, T63A, C68S, K70C, A76S, A127S counted along it
Sequence of IL-18 polypeptide C143 (V11I, C38A, K53A, C76A, C127A) (human) (Q14116 37-193 V47I/C74A/K89A/C112A/C163A): as the sequence (Q14116 37-193 V47I/E67A/D73A/C74A/K89A/C112A/C163A) above, with A31E, A37D counted along it
Sequence of IL-18 polypeptide of SEQ ID NO: 59 (E6K, C38A, K53A) (human) (Q14116 other isoform, or with tags, fused parts or gaps C38A K53A C38A K53A): as the sequence (Q14116 37-193 V47I/E67A/D73A/C74A/K89A/C112A/C163A) above, with E6K, I11V, A31E, A37D, A76C, A127C counted along it
Sequence of IL-18 polypeptide of SEQ ID NO: 53 (K53A, T63A) (human) (Q14116 37-193 K89A/T99A): as the sequence (Q14116 37-193 V47I/E67A/D73A/C74A/K89A/C112A/C163A) above, with I11V, A31E, A37D, A38C, T63A, A76C, A127C counted along it
Sequence of IL-18 polypeptide of SEQ ID NO: 52 (E06K, T63A) (human) (Q14116 37-193 E42K/T99A): as the sequence (Q14116 37-193 V47I/E67A/D73A/C74A/K89A/C112A/C163A) above, with E6K, I11V, A31E, A37D, A38C, A53K, T63A, A76C, A127C counted along it
Sequence of IL-18 polypeptide C158 (V11I, C38A, K53A, C76A, G108A, C127A) (human) (Q14116 37-193 V47I/C74A/K89A/C112A/G144A/C163A): as the sequence (Q14116 37-193 V47I/E67A/D73A/C74A/K89A/C112A/C163A) above, with A31E, A37D, G108A counted along it
Sequence of IL-18 polypeptide C160 (V11I, C38A, K53A, C76A, D110A, C127A) (human) (Q14116 37-193 V47I/C74A/K89A/C112A/D146A/C163A): as the sequence (Q14116 37-193 V47I/E67A/D73A/C74A/K89A/C112A/C163A) above, with A31E, A37D, D110A counted along it
Sequence of IL-18 polypeptide of SEQ ID NO: 6 (E6K, V11I, C38A, K53A, T63A, C68A, C76A, D98C, C127A) (human) (Q14116 other isoform, or with tags, fused parts or gaps with the stated changes): as the sequence (Q14116 37-193 V47I/E67A/D73A/C74A/K89A/C112A/C163A) above, with E6K, A31E, A37D, T63A, C68A, D98C counted along it
Sequence of IL-18 polypeptide C157 (V11I, C38A, K53A, C76A, C127A, D132A) (human) (Q14116 37-193 V47I/C74A/K89A/C112A/C163A/D168A): as the sequence (Q14116 37-193 V47I/E67A/D73A/C74A/K89A/C112A/C163A) above, with A31E, A37D, D132A counted along it
Sequence of IL-18 polypeptide of SEQ ID NO: 30 (E6K, V11I, C38A, K53A, T63A, C76A, C127A) (human) (Q14116 other isoform, or with tags, fused parts or gaps with the stated changes): as the sequence (Q14116 37-193 V47I/E67A/D73A/C74A/K89A/C112A/C163A) above, with E6K, A31E, A37D, T63A counted along it
Sequence of IL-18 polypeptide C165 (V11I, C38A, S55R, C76A, C127A) (human) (Q14116 37-193 V47I/C74A/S91R/C112A/C163A): as the sequence (Q14116 37-193 V47I/E67A/D73A/C74A/K89A/C112A/C163A) above, with A31E, A37D, A53K, S55R counted along it
Sequence of IL-18 polypeptide C167 (V11I, C38A, C76A, S105I, C127A) (human) (Q14116 37-193 V47I/C74A/C112A/S141I/C163A): as the sequence (Q14116 37-193 V47I/E67A/D73A/C74A/K89A/C112A/C163A) above, with A31E, A37D, A53K, S105I counted along it
Sequence of IL-18 polypeptide C166 (V11I, C38A, S55T, C76A, C127A) (human) (Q14116 37-193 V47I/C74A/S91T/C112A/C163A): as the sequence (Q14116 37-193 V47I/E67A/D73A/C74A/K89A/C112A/C163A) above, with A31E, A37D, A53K, S55T counted along it
Sequence of IL-18 polypeptide C145 (V11I, C38A, K53A, S55A, C76A, C127A) (human) (Q14116 37-193 V47I/C74A/K89A/S91A/C112A/C163A): as the sequence (Q14116 37-193 V47I/E67A/D73A/C74A/K89A/C112A/C163A) above, with A31E, A37D, S55A counted along it
Sequence of IL-18 polypeptide C164 (V11I, C38A, S55H, C76A, C127A) (human) (Q14116 37-193 V47I/C74A/S91H/C112A/C163A): as the sequence (Q14116 37-193 V47I/E67A/D73A/C74A/K89A/C112A/C163A) above, with A31E, A37D, A53K, S55H counted along it
Sequence of IL-18 polypeptide C155 (V11I, C38A, D40A, K53A, C76A, C127A) (human) (Q14116 37-193 V47I/C74A/D76A/K89A/C112A/C163A): as the sequence (Q14116 37-193 V47I/E67A/D73A/C74A/K89A/C112A/C163A) above, with A31E, A37D, D40A counted along it
Sequence of IL-18 polypeptide of SEQ ID NO: 60 (E6K, C38Q, K53A) (human) (Q14116 other isoform, or with tags, fused parts or gaps C38Q K53A C38Q K53A): as the sequence (Q14116 37-193 V47I/E67A/D73A/C74A/K89A/C112A/C163A) above, with E6K, I11V, A31E, A37D, A38Q, A76C, A127C counted along it
Sequence of IL-18 polypeptide of SEQ ID NO: 36 (K53A) (human) (Q14116 37-193 K89A): as the sequence (Q14116 37-193 V47I/E67A/D73A/C74A/K89A/C112A/C163A) above, with I11V, A31E, A37D, A38C, A76C, A127C counted along it
Sequence of IL-18 polypeptide of SEQ ID NO: 39 (E06K, K53A) (human) (Q14116 37-193 E42K/K89A): as the sequence (Q14116 37-193 V47I/E67A/D73A/C74A/K89A/C112A/C163A) above, with E6K, I11V, A31E, A37D, A38C, A76C, A127C counted along it
Sequence of IL-18 polypeptide of SEQ ID NO: 54 (E06K, K53A, C38S, C68S, C76S, C127S, K70C) (human) (Q14116 37-193 E42K/C74S/K89A/C104S/K106C/C112S/C163S): as the sequence (Q14116 37-193 V47I/E67A/D73A/C74A/K89A/C112A/C163A) above, with E6K, I11V, A31E, A37D, A38S, C68S, K70C, A76S, A127S counted along it
Sequence of IL-18 polypeptide C153 (V11I, D37A, C38A, K53A, C76A, C127A) (human) (Q14116 37-193 V47I/D73A/C74A/K89A/C112A/C163A): as the sequence (Q14116 37-193 V47I/E67A/D73A/C74A/K89A/C112A/C163A) above, with A31E counted along it
Sequence of IL-18 polypeptide C148 (F2A, V11I, C38A, K53A, C76A, C127A) (human) (Q14116 other isoform, or with tags, fused parts or gaps V11I C38A K53A C76A C127A V11I C38A K53A C76A C127A): as the sequence (Q14116 37-193 V47I/E67A/D73A/C74A/K89A/C112A/C163A) above, with F2A, A31E, A37D counted along it
Sequence of IL-18 polypeptide of SEQ ID NO: 34 (E06K, K53A, S55A) (human) (Q14116 37-193 E42K/K89A/S91A): as the sequence (Q14116 37-193 V47I/E67A/D73A/C74A/K89A/C112A/C163A) above, with E6K, I11V, A31E, A37D, A38C, S55A, A76C, A127C counted along it
Sequence of IL-18 polypeptide of SEQ ID NO: 50 (E06K, K53A, T63A) (human) (Q14116 37-193 E42K/K89A/T99A): as the sequence (Q14116 37-193 V47I/E67A/D73A/C74A/K89A/C112A/C163A) above, with E6K, I11V, A31E, A37D, A38C, T63A, A76C, A127C counted along it
Sequence of IL-18 polypeptide C161 (K8R, V11I, C38A, C76A, Q103E, C127A) (human) (Q14116 other isoform, or with tags, fused parts or gaps V11I C38A C76A Q103E C127A V11I C38A C76A Q103E C127A): as the sequence (Q14116 37-193 V47I/E67A/D73A/C74A/K89A/C112A/C163A) above, with K8R, A31E, A37D, A53K, Q103E counted along it
Sequence of IL-18 polypeptide of SEQ ID NO: 4 (E6K, C38A, K53A, C68A, M86C) (human) (Q14116 other isoform, or with tags, fused parts or gaps C38A K53A C68A M86C C38A K53A C68A M86C): as the sequence (Q14116 37-193 V47I/E67A/D73A/C74A/K89A/C112A/C163A) above, with E6K, I11V, A31E, A37D, C68A, A76C, M86C, A127C counted along it

- IC50 of IL-18BPa inhibition of IFNγ induction in NK-92 cells [1]: 3.62 nM
- IC50 of IL-18BPa inhibition of IFNγ induction in NK-92 cells [2]: 5.85 nM
- IC50 of IL-18BPa inhibition of IFNγ induction in NK-92 cells [3]: 27.8 nM
- IC50 of IL-18BPa inhibition of IFNγ induction in NK-92 cells [4]: > 55 nM
- IC50 of IL-18BPa inhibition of IFNγ induction in NK-92 cells [5]: 4.46 nM
- IC50 of IL-18BPa inhibition of IFNγ induction in NK-92 cells [6]: 21.3 nM
- IC50 of IL-18BPa inhibition of IFNγ induction in NK-92 cells [7]: 5.05 nM
- IC50 of IL-18BPa inhibition of IFNγ induction in NK-92 cells [8]: > 1000 nM
- IC50 of IL-18BPa inhibition of IFNγ induction in NK-92 cells [9]: 37.3 nM
- IC50 of IL-18BPa inhibition of IFNγ induction in NK-92 cells [10]: 1.47 nM
- IC50 of IL-18BPa inhibition of IFNγ induction in NK-92 cells [11]: 15 nM
- IC50 of IL-18BPa inhibition of IFNγ induction in NK-92 cells [12]: 0.885 nM
- IC50 of IL-18BPa inhibition of IFNγ induction in NK-92 cells [13]: 7.85 nM
- IC50 of IL-18BPa inhibition of IFNγ induction in NK-92 cells [14]: 0.114 nM
- IC50 of IL-18BPa inhibition of IFNγ induction in NK-92 cells [15]: 961 nM
- IC50 of IL-18BPa inhibition of IFNγ induction in NK-92 cells [16]: 1.81 nM
- IC50 of IL-18BPa inhibition of IFNγ induction in NK-92 cells [17]: 3.98 nM
- IC50 of IL-18BPa inhibition of IFNγ induction in NK-92 cells [18]: 7.29 nM
- IC50 of IL-18BPa inhibition of IFNγ induction in NK-92 cells [19]: 146 nM
- IC50 of IL-18BPa inhibition of IFNγ induction in NK-92 cells [20]: 0.239 nM
- IC50 of IL-18BPa inhibition of IFNγ induction in NK-92 cells [21]: 0.456 nM
- IC50 of IL-18BPa inhibition of IFNγ induction in NK-92 cells [22]: 27.3 nM
- IC50 of IL-18BPa inhibition of IFNγ induction in NK-92 cells [23]: > 703 nM
- IC50 of IL-18BPa inhibition of IFNγ induction in NK-92 cells [24]: 0.823 nM
- IC50 of IL-18BPa inhibition of IFNγ induction in NK-92 cells [25]: 396 nM
- IC50 of IL-18BPa inhibition of IFNγ induction in NK-92 cells [26]: 47.6 nM
- IC50 of IL-18BPa inhibition of IFNγ induction in NK-92 cells [27]: 2.22 nM
- IC50 of IL-18BPa inhibition of IFNγ induction in NK-92 cells [28]: 1.17 nM
- IC50 of IL-18BPa inhibition of IFNγ induction in NK-92 cells [29]: 10.2 nM
- IC50 of IL-18BPa inhibition of IFNγ induction in NK-92 cells [30]: 0.444 nM
- IC50 of IL-18BPa inhibition of IFNγ induction in NK-92 cells [31]: 229 nM
- IC50 of IL-18BPa inhibition of IFNγ induction in NK-92 cells [32]: 654 nM
- IC50 of IL-18BPa inhibition of IFNγ induction in NK-92 cells [33]: 780 nM
- IC50 of IL-18BPa inhibition of IFNγ induction in NK-92 cells [34]: 47.1 nM
- IC50 of IL-18BPa inhibition of IFNγ induction in NK-92 cells [35]: 1.07 nM
- IC50 of IL-18BPa inhibition of IFNγ induction in NK-92 cells [36]: 1060 nM
- IC50 of IL-18BPa inhibition of IFNγ induction in NK-92 cells [37]: 62.4 nM
- IC50 of IL-18BPa inhibition of IFNγ induction in NK-92 cells [38]: 3.18 nM
- IC50 of IL-18BPa inhibition of IFNγ induction in NK-92 cells [39]: 0.189 nM
- IC50 of IL-18BPa inhibition of IFNγ induction in NK-92 cells [40]: 23.5 nM
- IC50 of IL-18BPa inhibition of IFNγ induction in NK-92 cells [41]: 6.08 nM
- IC50 of IL-18BPa inhibition of IFNγ induction in NK-92 cells [42]: 1.62 nM
- IC50 of IL-18BPa inhibition of IFNγ induction in NK-92 cells [43]: 18.2 nM
- IC50 of IL-18BPa inhibition of IFNγ induction in NK-92 cells [44]: 7.79 nM
- IC50 of IL-18BPa inhibition of IFNγ induction in NK-92 cells [45]: > 1000 nM
- IC50 of IL-18BPa inhibition of IFNγ induction in NK-92 cells [46]: 733 nM
- IC50 of IL-18BPa inhibition of IFNγ induction in NK-92 cells [47]: 284 nM
- IC50 of IL-18BPa inhibition of IFNγ induction in NK-92 cells [48]: 7.52 nM
- IC50 of IL-18BPa inhibition of IFNγ induction in NK-92 cells [49]: 5.85 nM
- IC50 of IL-18BPa inhibition of IFNγ induction in NK-92 cells [50]: 0.44 nM
- IC50 of IL-18BPa inhibition of IFNγ induction in NK-92 cells [51]: 3.71 nM
- IC50 of IL-18BPa inhibition of IFNγ induction in NK-92 cells [52]: 0.809 nM
- IC50 of IL-18BPa inhibition of IFNγ induction in NK-92 cells [53]: 0.681 nM
- IC50 of IL-18BPa inhibition of IFNγ induction in NK-92 cells [54]: 0.176 nM
- IC50 of IL-18BPa inhibition of IFNγ induction in NK-92 cells [55]: 3.23 nM
Substance: Fc-fused human IL-18 binding protein isoform a (IL-18BPa) (from UniProt O95998 31-194) (Fc fusion)
